Molecular target: IFNγR-IL2/IL15R signal converter
Assay: cell-based or functional assay

Chain of IFNγR-IL2/IL15R signal converter (chain, as listed by the source limits assumed, chain 1 of 2): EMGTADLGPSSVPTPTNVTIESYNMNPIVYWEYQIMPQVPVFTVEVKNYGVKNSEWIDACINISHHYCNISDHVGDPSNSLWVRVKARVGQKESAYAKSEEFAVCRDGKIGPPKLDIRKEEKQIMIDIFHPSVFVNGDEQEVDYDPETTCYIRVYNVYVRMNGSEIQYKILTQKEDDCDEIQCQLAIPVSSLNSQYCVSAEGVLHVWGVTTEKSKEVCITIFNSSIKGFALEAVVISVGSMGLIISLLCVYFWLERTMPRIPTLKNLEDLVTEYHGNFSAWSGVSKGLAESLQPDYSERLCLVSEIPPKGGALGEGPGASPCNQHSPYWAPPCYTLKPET
Chain of IFNγR-IL2/IL15R signal converter (chain, as listed by the source limits assumed, chain 2 of 2): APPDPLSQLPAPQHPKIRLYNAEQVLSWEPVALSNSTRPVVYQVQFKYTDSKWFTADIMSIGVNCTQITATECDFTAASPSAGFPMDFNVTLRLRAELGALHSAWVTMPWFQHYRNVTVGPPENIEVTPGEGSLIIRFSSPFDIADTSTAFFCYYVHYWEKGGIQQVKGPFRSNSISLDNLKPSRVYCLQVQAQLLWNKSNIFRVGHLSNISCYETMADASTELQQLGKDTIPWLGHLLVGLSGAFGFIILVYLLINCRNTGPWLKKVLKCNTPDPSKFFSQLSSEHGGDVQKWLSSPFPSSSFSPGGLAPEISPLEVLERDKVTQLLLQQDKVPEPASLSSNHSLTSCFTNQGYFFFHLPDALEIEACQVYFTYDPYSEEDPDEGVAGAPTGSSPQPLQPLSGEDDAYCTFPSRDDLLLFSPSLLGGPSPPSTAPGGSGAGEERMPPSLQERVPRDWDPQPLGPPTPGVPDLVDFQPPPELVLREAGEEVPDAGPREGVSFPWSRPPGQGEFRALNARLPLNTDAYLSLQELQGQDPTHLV

cell proliferation (Tag-it violet cell tracking staining), 6 days under IFN-γ treatment: 40%
percentage of proliferation (flow cytometry, Tag-it Violet), 6 days, 5 ng/mL IFN-γ: 42.3%
Substance: IFN-γ (from UniProt P01579 24-166) (ligand)

— patent publication US20250290040A1
